Results as given in the DeepSol protein solubility set.

experiment: soluble on expression in E. coli; label from the status in PepcDB or PDB records

Sequence | soluble on expression in E. coli
MKIALIGATGHVGHYFLNEALQRGHAVTALVRDPSKLAARDGLCVVQADVSDPAQVASAVAGHEVVISAFNGGWGSADLRARHAAGSQAILDGVKRSGVPRLLVLGGAGSLEIAPGQRLVDSPEFPEQWKQGALGAADALDQLRGEQRLDWVFLSPAMLLEPGQRSGKFRLGGDQVLFDAKGESRISLEDLAVAMLDEAEQPRHHRQRFTVAYLEHHHHHH | soluble
MGSDKIHHHHHHMHFTPALKPGKLLKRYKRFLADVQLEDGSEITVHCPNTGSMRNCLFPGETLWFSTSSNTKRKYAHTWELMTTPTGALIGIHSGNANALVEEALNKGIITELTGYDSLRREVKYGDENSRIDILLECAQKTACYIEVKSCTLQENGQGYFPDAVSLRGQKHLRELMHMASLGHRAVLLFVVQHTDIMSVAPAAHIDPEYANLLKKSVLSGVEVLAYRCEISPSEIHLAQSCPVRV | not soluble
MSDVRPPLPPFTAETAAQKVRAAEDGWNSRDPQRVSLAYSPDSVWRNRSTFVRGRERIVEFLSGKWQREQEYRLIKELWAFTGNRIAVRFAYEWHDDSGNWFRSYGNENWAFDEQGLMYERHASINDLPIREDQRLFRWLLGRRPDNHPSLGELGLLEHHHHHH | soluble
MTVYLRKAEPSDLPDILAIIEDGRRTLQKSGIPQWQNGDGPNQEILAKDIDQQTCYILMVEDALAGVGVLCSEIDPAYEAIFNGSWQPHSQTTYTAIHCVALKSSFQGQGLALVLLRSLVTAARLQGATDIRIDTHPQNLAMQHLIKKAGFVYQGDVILDVNDGERYAYQMILK | not soluble
GSMSSFLGKWKLSESHNFDAVMSKLGVSWATRQIGNTVTPTVTFTMDGDKMTMLTESTFKNLSCTFKFGEEFDEKTSDGRNVKSVVEKNSESKLTQTQVDPKNTTVIVREVDGDTMKTTVTVGDVTAIRNYKRLS | soluble
MSLVNMEFLKRSFAPLTEKQWQEIDNRAREIFKTQLYGRKFVDVEGPYGWEYAAHPLGEVEVLSDENEVVKWGLRKSLPLIELRATFTLDLWELDNLERGKPNVDLSSLEETVRKVAEFEDEVIFRGCEKSGVKGLLSFEERKIECGSTPKDLLEAIVRALSIFSKDGIEGPYTLVINTDRWINFLKEEAGHYPLEKRVEECLRGGKIITTPRIEDALVVSERGGDFKLILGQDLSIGYEDREKDAVRLFITETFTSRLSTRRPEGHHHHHH | soluble
MGARGKFDQFDDGKIKLASSLTSKAAANALQTIIEKYNIVKSGKDYPIEITQIAGGYDGGRTDLQTRVSVKDKTNFYNLILNYPDLVSVLARSGMELLFDKVNVDKLEPNFLKFNEQISGVAKSGNYGIPVSLSTDILVLNGPVLHYILNSAKKEEANSQVKSQIKTSQIQAKGSLTIDTDENTKSLWEKIQNSAKANGETNQKGRKAAKSNKTALVQLKNGADTTTNEENKDTKTSDDKVKQTWGDYVEKDDGLKNYTFRASVFENWHDFLDFSTRVAKSFTEKVSNITNKKGTDIQGVLGVDSSPNVLFASVFAAGGGNYENFFYKLKDGRADFSNFKNKGSSYQNLQSVFKDLEHHHHHH | not soluble
MKKQLLIVDGYNMIGAWPELVQLKKQERLEDARELLLSRLSNYAKYEGLEIIVVFDAQLVPGIQQTYKKYLLTVVFTKEDETADSYIERLAGEKNDRLTQVTVATSDLAEQWVVFSQGALRTSANELYKAVQKTEKTIAIHATDIHFQQFRRNSPWNVEQLSKLSEKLEELSQKKD | not soluble
MGSDKIHHHHHHMNQMQQWKPDFLGEGYQNLTIELGDDPDNETDVVTTVVRYNPDNHADESFAARPALLWVHGMTDYFFHTEFAEFFHNAGFAVYGIDLRKCGRSYRPGQQWHYTSDLAHYFPDLTAAAEVISSTHPELVPVAHSTGGLIVPLWMSQMRTSNPAAIEKIPALVLNSPWLDMMYPPLFIKLITPMVRVLGKRSPTTIIPGGGLGAYGKSIHKNFYGEWDFDTTIKPVEGHKKSIGWLRAVMAGQAEIHHDHVNVGVDVLTLCSNKSWLKSEYTEDTNTSDAVLDVKHIQKWAPHLSSPSSRVDVEIIDNARHDIFLSRKPARDHASEVLNNWLQSKLSSLKPSQ | not soluble
MGSDKIHHHHHHMENIAQWVGIDVSKATLDVYIRPLGKAMIVANTESEISNLVKLLLSYSLNLIVLEATGGLETELVIQLQAALLPVALINPRQGRDFAKATGKLAKTDAIDAQILAHFGEAMKPQVLAIQSETARQLSELISRRRQLVEMQTAEKNRRSLTRGQALADIEAHIEYLEEHLKQLNQKIAELTQNNLQWIDKVNLLKSTPGIGQVISTTLVSDLPELGQLTAKQISRLVGVAPINHDSGQHKGKRMINGGRAHVRATLYMGAVVAMVHNPVIKAFYERLIERGKSKKLALTACVHKMLVILNAMVRDNLPWRVTENLQPIANA | not soluble
RLKNPKIKQGGEWMDVDWKTALEYVRSAIECIAKDGNQNQVGVWANPMNTVEELYLAKKFADGLGVKNFATRLRQQDKRLSDGLKGAQWLGQSIESLADNDAVLVVGANLRKEQPLLTARLRRAAKDRMALSVLAGSKEELFMPLLSQEAAHPDEWAGRLKNLSADAEHAVTASLKNAEKAAVILGAEVQNHPDYAAIYAAAQELADATGAVLGILPQAANSVGADVLGVNSGESVAEMANTPKQAVLLLNVEPEIDTVDGAKAVAALKQAKSVMAFTPFVSETLLDVCDVLLPIAPFTETSGSFINMEGRLQSFHGVVQGFGDSRPMWKVLRVLGNLFDLKGFEYHDTAAILKDALD | not soluble
MLGVCYYPEHWPKERWKEDARRMREAGLSHVRIGEFAWALLEPEPGRLEWGWLDEAIATLAAEGLKVVLGTPTATPPKWLVDRYPEILPVDREGRRRRFGGRRHYCFSSPVYREEARRIVTLLAERYGGLEAVAGFQTDNEYGCHDTVRCYCPRCQEAFRGWLEARYGTIEALNEAWGTAFWSQRYRSFAEVELPHLTVAEPNPSHLLDYYRFASDQVRAFNRLQVEILRAHAPGKFVTHNFMGFFTDLDAFALAQDLDFASWDSYPLGFTDLMPLPPEEKLRYARTGHPDVAAFHHDLYRGVGRGRFWVMEQQPGPVNWAPHNPSPAPGMVRLWTWEALAHGAEVVSYFRWRQAPFAQEQMHAGLHRPDSAPDQGFFEAKRVAEELAALALPPVAQAPVALVFDYEAAWIYEVQPQGAEWSYLGLVYLFYSALRRLGLDVDVVPPGASLRGYAFAVVPSLPIVREEALEAFREAEGPVLFGPRSGSKTETFQIPKELPPGPLQALLPLKVVRVESLPPGLLEVAEGALGRFPLGLWREWVEAPLKPLLTFQDGKGALYREGRYLYLAAWPSPELAGRLLSALAAEAGLKVLSLPEGLRLRRRGTWVFAFNYGPEAVEAPASEGARFLLGSRRVGPYDLAVWEEA | soluble
MAGDPMWKTDVKLNADKFRKIDVHSHIQVLGYPFNVSITPQEFLSLMEAYNIEVAIISDVDNENIAKIVREYPDKLVGIYWANPRDKNSIKEAEKFLEKFEFRGIKLHPLLNMFSPADPKVEDIMRIAEEFNVHVQVHSGHPPTSLPWQIEELARKFPEVKIVMVHMGHGNAYYIQGAIEVAERNENVYLETSGMPMPSKIAEAYKVAPKRVVFGIDLPCHHPVVEIAKVLTSGLDEKGMERVFYENAKVLLLEHHHHHH | not soluble
MGSDKIHHHHHHMMKALILAGGSGERFWPLSTPETPKQFLKLFGNKSLMRWTFERVLEEMDPKDVIVVTHKDYVERTKKELPELPDENIIAEPMKKNTAPACFIGTKLADDDEPVLVLPADHRIPDTKKFWKTVKKALDALEKYDGLFTFGIVPTRPETGYGYIEIGEELEEGVHKVAQFREKPDLETAKKFVESGRFLWNSGMFLWKAREFIEEVKVCEPSIYENLKDVDPRNFEELKKAYEKVPSISVDYAVMEKSKKVRVVKADFEWSDVGNWSSVREIEGYTEESDEVILVDSDRVFVKTHNKPIAVVGLSDVIVIDTPNGILICKEEYAQKVREVVKKLFRTS | not soluble
